Experimental findings from patent publication US20260240831A1, “CANCER STRATIFICATION AND TREATMENT” (Deutsches Krebsforschungszentrum Stiftung des öffentlichen …, priority 2023, published 2026) are described below.

For test [1], the system named is PDX GBMs. The experiment in a line: Survival of mice bearing Wnt-antagonist-overexpressing T6 PDX GBM. Format: in vivo, mouse. Particulars: for overall survival: overexpression under TCF/Lef promoter in PDX vs Wnt-reporter controls. An excerpt: We identified the secreted Wnt antagonist SFRP1 as being implicated in the Q-A transition in the healthy SVZ. […] Similarly, [22] reports a role of SFRP1 in regulating the activation of human NSCs, and data from our own lab implicates its most-conserved paralog, SFRP5, in the activation of murine NSCs. Following these evidences and in order to target Wnt-active tumor cells, we cloned human SFRP1 downstream of the TCF/Lef promoter and generated T6 PDA and PDX tumors as outlined previously.
To allow sorting of human GBM cells, cells were infected with the 7TGC (Addgene plasmid #24304) lentiviral vector at a multiplicity of infection (MOI) of 5. Expression of the transduction marker (mCherry) was confirmed by FACS analysis. Second-generation, self-inactivating, replication deficient lentiviral particles were produced, purified and titrated as described previously ([32]).
For ortotopic injection of lentivirally transduced primary GBM cells into the mouse brain, 5×10^5 cells were cultured as single cell suspension overnight. Newly formed spheres were resuspended in 2 μl of Matrigel, loaded into a NanoFil syringe and stereotactically injected into the striatum (2.5 mm lateral to the bregma at a depth of 3.0 mm) of 8-10 week-old Fox Chase SCID-Beige mice under anesthesia. Tumor growth was longitudinally monitored by magnetic resonance imaging at the Small Animal Imaging Center at the DKFZ. Upon reaching termination criteria, mice were sacrificed and brains were collected after transcardial perfusion. For perfusion, mice were anesthetized by intraperitoneal injection of 800 μl of perfusion solution. After opening the thoracic cavity exposing heart, transcardial perfusion was carried out with 10 ml of ice cold HBSS.

Test [2] has as its system PDX GBMs. The test can be described thus: scRNA-seq with ptalign cell states of Wnt-antagonist-overexpressing PDX samples. The format is in vivo, mouse. To be noted: for Activation state (ptalign cell state) / tumor Differentiation (ptalign aligned pseudotime) / tumor Quiescence (ptalign cell state, incl. astroQ): PDX vs control Wnt-reporter PDX. Here is the method:
For isolation of the xenografted human GBM cells, tumor bearing mouse brains were dissected and single cell suspension was prepared using Brain Tumor Dissociation Kit (P) and gentleMACS Octo Dissociator with Heaters (Miltenyi) according to manufacturer's instructions. mCherry+ cell population was index sorted into 384 well-plates (Eppendorf Lobind). Microplates containing cell lysates were briefly centrifuged, snap frozen on dry ice and were stored at −80° C. Sytox Blue (Life Technologies, 1:1000) was used in all experiments as a dead cell indicator. Index sorting of single cells as well as sorting of bulk samples was carried out using a 100 micron nozzle at a BD FACSAria II or BD FACSAria Fusion at the Flow Cytometry Core Facility at the DKFZ.
Single cell RNA-sequencing libraries from patient-derived xenografts were prepared using Smart-seq3 platform as previously described (Hagemann-Jensen, Nature Biotechnology, 2020) with minor modifications. The protocol was automated and miniaturized by incorporating liquid handling platforms including Mosquito HV (STPLabtech), Mantix (Formulatrix) and Viaflo 384 (Integra). Briefly, plates were incubated at 72° C. for 10 min to facilitate lysis and denaturation of secondary structures in the RNA. Lysed cells were subjected to reverse transcription in 2 μl using Maxima H-minus reverse transcriptase (Thermo Scientific), an oligo(dT) primer and a template-switching oligonucleotide encompassing an 8-bp unique molecular identifier (IDT). In a randomly selected set of wells, we included ERCC Spike-ins (Ambion) at a 1:2500000 dilution. Full length cDNAs were amplified for 22 cycles of PCR using KAPA HiFi DNA polymerase (KAPA Biosystems). cDNA samples were purified with Ampure XP beads at a 1:0.8 ratio and cDNA quality in randomly selected 10 wells/plate was assessed on a High Sensitivity Bioanalyzer chip (Agilent). cDNA concentrations were quantified using Quant-it PicoGreen dsDNA Assay kit (Thermo Scientific) and Synergy LX multi-mode microplate reader (Biotek). cDNAs were normalized to 250-500 pg μl^−1. 100-200 pg of cDNA per sample was used for tagmentation in 1.2 μl using Illumina XT DNA sample preparation kit. Libraries were finally amplified for 11 cycles of PCR in 4 μl using custom-designed Nextera index primers containing 8-bp index barcode sequences with a minimal Levenshtein distance of 4 as previously published (Buenrostro et al., Nature, 2015). Samples were purified with Ampure XP beads at a 1:0.8 ratio and DNA quality in randomly selected 10 wells/plate was assessed on a High Sensitivity Bioanalyzer chip (Agilent). Libraries were quantified as mentioned above and normalized libraries were equimolarly pooled and purified one last time at a 1:0.8 ratio. Prior to sequencing, final library concentration was determined using Qubit dsDNA High Sensitivity Assay kit (Thermo Scientific) and Qubit fluorometer (Invitrogen) and the average fragment size was calculated on a High Sensitivity Bioanalyzer chip (Agilent). Libraries with 1% spiked-in PhiX control (Illumina) were sequenced at the 75-bp paired end on a high output flow cell using an Illumina NextSeq550 instrument at a sequencing depth of ~1 M reads per cell at the sequencing open lab at the DKFZ.
In sequence alignment, the position of one query sequence in a larger reference sequence is ascertained by scoring local sequence similarity until an optimal match is found. We employ a conceptually similar strategy to infer a given query cell's optimal positioning in the space of a reference pseudotime trajectory in a method we call ptalign. The ptalign program requires four central inputs: a query counts table, a reference counts table, a reference pseudotime mapping, and a set of genes capturing the reference pseudotime trajectory. Query cells are then placed along the reference pseudotime according to the dynamic of the correlation of their gene expression along the trajectory genes. […]

Test [3] relates to PDX GBMs. The experiment in a line: Tumor IHC morphology of SFRP1-overexpressing PDX. Format: in vivo. To be noted: mouse cortex, vs control Wnt-reporter PDX.
In the next test the test system is T6 PDA. The test can be described thus: scRNA-seq with ptalign cell states of SFRP1-overexpressing T6 PDA in human cortical organoids. The format is cell-based. To be noted: 2-week PDA replicates, compared with PDX (not shown). Here is the method:
For injection of lentivirally transduced primary GBM cells into human brain organoids, 3×10^4 cells were cultured as single cell suspension overnight. Newly formed spheres were resuspended in 1 μl of Differentiation Medium with vitamin A, loaded into a NanoFil syringe and injected into the core of 2 month-old organoids under a dissection microscope. Tumor bearing organoids were maintained in Differentiation Medium with vitamin A on an orbital shaker (70 RPM) for 15 days at 5% CO2 and 37° C.
In sequence alignment, the position of one query sequence in a larger reference sequence is ascertained by scoring local sequence similarity until an optimal match is found. We employ a conceptually similar strategy to infer a given query cell's optimal positioning in the space of a reference pseudotime trajectory in a method we call ptalign. The ptalign program requires four central inputs: a query counts table, a reference counts table, a reference pseudotime mapping, and a set of genes capturing the reference pseudotime trajectory. Query cells are then placed along the reference pseudotime according to the dynamic of the correlation of their gene expression along the trajectory genes. […] The quality of an assigned pseudotime is determined via the computation of a dynamic time warping (DTW) matrix over the pseudotime-binned reference and the equally binned query. […]

Entries after “also recorded” stand apart in the source; their conditions may differ.

B1: NOTUM: Wnt antagonist notum polypeptide (Genbank Acc No. NP_848588.3), overexpressed in PDX GBM cells (protein, UniProt Q6P988 20-496, looked up)
Palmitoleoyl-protein …: SEGRKTWRRRGQQPPPPPRTEAAPAAGQPVESFPLDFTAVEGNMDSFMAQVKSLAQSLYPCSAQQLNEDLRLHLLLNTSVTCNDGSPAGYYLKESRGSRRWLLFLEGGWYCFNRENCDSRYDTMRRLMSSRDWPRTRTGTGILSSQPEENPYWWNANMVFIPYCSSDVWSGASSKSEKNEYAFMGALIIQEVVRELLGRGLSGAKVLLLAGSSAGGTGVLLNVDRVAEQLEKLGYPAIQVRGLADSGWFLDNKQYRHTDCVDTITCAPTEAIRRGIRYWNGVVPERCRRQFQEGEEWNCFFGYKVYPTLRCPVFVVQWLFDEAQLTVDNVHLTGQPVQEGLRLYIQNLGRELRHTLKDVPASFAPACLSHEIIIRSHWTDVQVKGTSLPRALHCWDRSLHDSHKASKTPLKGCPVHLVDSCPWPHCNPSCPTVRDQFTGQEMNVAQFLMHMGFDMQTVAQPQGLEPSELLGMLSNGS
Turning to B1, the overall survival entry in the test on PDX GBMs [1] is reported as “significantly increased survival”. In the test on PDX GBMs [2], the “Activation state (ptalign cell state)” value is recorded as “concomitant reduction in activation”; the “tumor Differentiation (ptalign aligned pseudotime)” value was “without disturbing differentiation”; the “tumor Quiescence (ptalign cell state, incl. astroQ)” value is “significantly increased quiescence”.

B2: SFRP1: secreted Wnt antagonist; human SFRP1 cloned downstream of the TCF/Lef promoter, lentivirally overexpressed in GBM cells (protein, UniProt Q8N474 32-314, looked up)
Secreted frizzled-related …: SEYDYVSFQSDIGPYQSGRFYTKPPQCVDIPADLRLCHNVGYKKMVLPNLLEHETMAEVKQQASSWVPLLNKNCHAGTQVFLCSLFAPVCLDRPIYPCRWLCEAVRDSCEPVMQFFGFYWPEMLKCDKFPEGDVCIAMTPPNATEASKPQGTTVCPPCDNELKSEAIIEHLCASEFALRMKIKEVKKENGDKKIVPKKKKPLKLGPIKKKDLKKLVLYLKNGADCPCHQLDNLSHHFLIMGRKVKSQYLLTAIHKWDKKNKEFKNFMKKMKNHECPTFQSVFK
Consider B2, for which, in the test on PDX GBMs [1] (SFRP1 induction in PDX GBMs, before the experiment was terminated), the “survival longer than control, on average” value turned out to be 1 month. In addition, the overall survival entry in the test on PDX GBMs [1] is “significant increase in overall survival”. The overall survival entry with PDX GBMs [1] (listed as sFRP1) is reported as “significantly increased survival”. Besides, the “tumor cell morphology (IHC)” value in the test with PDX GBMs [3] is recorded as “extensive morphological changes; also recorded: dominant astrocyte-like morphology”. In the test on T6 PDA, the “effects on Quiescence, Activation and cycling cells in PDA” value was “consistent yet weaker”. For the same molecule, in the test on PDX GBMs [2] (PDX vs control), the cycling cells entry is “relative increase in cycling cells”. Besides, in the test with PDX GBMs [2], the “Activation state (ptalign cell state)” value was “concomitant reduction in the Activation state”; the “tumor Differentiation (ptalign aligned pseudotime)” value is on record as “without disturbing differentiation; also recorded: not affected”; the “tumor Quiescence (ptalign cell state, incl. astroQ)” value was “significantly increased quiescence; also recorded: significant increase in tumor Quiescence”.
